# From PMC9122598, “NASP maintains histone H3–H4 homeostasis through two distinct H3 binding modes” (Nucleic Acids Research, 2022)
# Test system: H3–H4 tetramer
# Experiment: GST pulldown of H3–H4 with frog GST-NASP.Sc
# Type: binding
# Experimental: As mentioned above the GST-tagged sNASPc, frog NASP.Sc and their mutants could not be separated into dimer and monomer peaks during the purification steps, the conformations of these proteins used for pulldowns were mixtures of dimer and monomer. […] All the samples were analyzed with SDS-PAGE.
molecule,measurement,setting,value
"frog NASP.S: frog homologue of sNASP (N1/N2); tested as GST-NASP.Sc dimer/monomer mixture (protein, left off: GST, N-terminal, cleaved, frog homologue of sNASP (N1/N2); tested as GST-NASP.Sc dimer/monomer mixture) SAEKADGIDIDTEAKRLMGAGQKHLVMKDVRSAVNLFQEASSLLAKQYGETADECAEAFYSYGMSLLELARLENEGTEEKETEEEDVGNLQLAWEMLDLCKTIFKRQQSKEAQLKAAQAHQKLGEVCIESENYSQAVEDFLACLNIQKEHLEEHDRLLAETHYHLGLAYQYSSKHEEAISHFTQSIGVIEKRMDVLTKQLEASVGELVDEVKKEMDELKDLLPDIKEKIEDSKEAQKNATVTEKALKETLVGGSS",Retention of H3 vs H4 in pulldown,in the absence of H3 αN-binding,retained more H3 than H4
same,Pulldown binding to H3–H4,"incubation 0.3 M NaCl, wash […] NaCl",H3 αN- and α3-binding sites are conserved
